Data as given in patent US20200297863A1, “ANTI-EGFR ANTIBODY DRUG CONJUGATES (ADC) AND USES THEREOF” (AbbVie Inc., priority 2017, published 2020).

Assays:
CTG-9786 = CTG-9786 patient-derived head and neck cancer xenograft model; type: in vivo; details: much higher dose than the PBD ADCs
Text: (§1) Numbers in parentheses represent dose in mg/kg, and arrows represent days of dosing.

LoVo = LoVo colorectal adenocarcinoma xenograft model; type: in vivo, mice; details: administered at a much higher dose than the PBD conjugates
Procedure: Numbers in parentheses represent dose in mg/kg. Arrows represent days of dosing.
Both conjugates were administered at 0.5mg/kg on a q7dx6 regimen (where mice were dosed every 7 days for 6 weeks).

CTG-0162 = CTG-0162 patient-derived NSCLC xenograft model; type: in vivo; details: dosed ten-fold higher than the PBD ADCs
Text: as §1

B1: AbA-MMAE: AbA conjugated to monomethyl auristatin E via a cleavable valine-citrulline (VC) linker; DAR about 3 (conjugate, chains of the INN, looked up)
VH: EVQLQESGPGLVKPSQTLSLTCTVSGYSISRDFAWNWIRQPPGKGLEWMGYISYNGNTRYQPSLKSRITISRDTSKNQFFLKLNSVTAADTATYYCVTASRGFPYWGQGTLVTVSS
VL: DIQMTQSPSSMSVSVGDRVTITCHSSQDINSNIGWLQQKPGKSFKGLIYHGTNLDDGVPSRFSGSGSGTDYTLTISSLQPEDFATYYCVQYAQFPWTFGGGTKLEIK
modifications: vc-MMAE payload, DAR about 3
inhibition of tumor growth (CTG-9786): effective, but required a much higher dose
tumor response (LoVo): active in this model, with activity similar to that observed with Ab1(S239C)-PBD
inhibition of tumor growth (CTG-0162): less efficacious
